Test results from patent publication US6998260.

Molecular target: human fibrinogen (UniProt P02671)
Sequence (P02671 20-629, chain 1 of 3): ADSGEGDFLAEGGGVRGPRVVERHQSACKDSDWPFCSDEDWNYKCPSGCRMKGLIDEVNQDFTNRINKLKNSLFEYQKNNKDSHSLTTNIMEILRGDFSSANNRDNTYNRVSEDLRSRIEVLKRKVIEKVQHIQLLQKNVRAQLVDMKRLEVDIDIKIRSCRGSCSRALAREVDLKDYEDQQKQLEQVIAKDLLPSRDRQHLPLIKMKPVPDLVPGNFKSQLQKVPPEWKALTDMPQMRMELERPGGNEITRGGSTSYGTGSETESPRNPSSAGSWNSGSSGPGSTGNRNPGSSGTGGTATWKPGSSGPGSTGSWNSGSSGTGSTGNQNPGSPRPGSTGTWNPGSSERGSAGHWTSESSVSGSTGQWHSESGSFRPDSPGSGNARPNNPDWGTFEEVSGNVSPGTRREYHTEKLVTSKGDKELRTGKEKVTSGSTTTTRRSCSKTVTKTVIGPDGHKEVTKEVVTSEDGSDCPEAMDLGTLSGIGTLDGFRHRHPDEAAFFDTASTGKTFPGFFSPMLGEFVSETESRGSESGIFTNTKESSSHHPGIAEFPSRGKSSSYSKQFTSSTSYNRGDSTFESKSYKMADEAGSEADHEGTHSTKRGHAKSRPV
Sequence (chain, as listed by the source, chain 2 of 3): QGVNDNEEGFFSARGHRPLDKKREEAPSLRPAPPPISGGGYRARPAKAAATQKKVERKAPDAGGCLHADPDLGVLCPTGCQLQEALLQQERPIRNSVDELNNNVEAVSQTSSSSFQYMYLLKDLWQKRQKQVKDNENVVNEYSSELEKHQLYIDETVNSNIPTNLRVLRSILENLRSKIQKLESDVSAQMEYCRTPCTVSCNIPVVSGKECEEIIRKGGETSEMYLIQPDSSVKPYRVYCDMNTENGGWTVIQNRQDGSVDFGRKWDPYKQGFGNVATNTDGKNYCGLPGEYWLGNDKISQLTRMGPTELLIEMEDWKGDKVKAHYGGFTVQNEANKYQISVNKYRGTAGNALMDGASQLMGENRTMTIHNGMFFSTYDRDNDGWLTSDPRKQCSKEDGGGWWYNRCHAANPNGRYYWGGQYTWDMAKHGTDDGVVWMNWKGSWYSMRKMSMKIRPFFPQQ
Sequence (chain, as listed by the source, chain 3 of 3): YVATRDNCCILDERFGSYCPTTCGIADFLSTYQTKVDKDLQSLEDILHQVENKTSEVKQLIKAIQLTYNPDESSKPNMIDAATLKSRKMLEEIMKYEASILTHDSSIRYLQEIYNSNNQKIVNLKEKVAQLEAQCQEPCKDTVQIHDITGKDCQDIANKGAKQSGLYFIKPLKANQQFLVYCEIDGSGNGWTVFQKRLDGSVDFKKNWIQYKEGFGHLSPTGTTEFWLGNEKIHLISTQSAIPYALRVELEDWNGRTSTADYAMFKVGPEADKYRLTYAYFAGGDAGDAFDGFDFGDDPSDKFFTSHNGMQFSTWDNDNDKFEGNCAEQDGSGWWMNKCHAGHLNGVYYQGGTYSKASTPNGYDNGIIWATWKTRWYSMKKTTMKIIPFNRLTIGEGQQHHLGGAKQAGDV

Sequence of recombinant human β-II tryptase (from pPIC9-HumTryN102K, expressed in Pichia pastoris) (chain, as listed by the source): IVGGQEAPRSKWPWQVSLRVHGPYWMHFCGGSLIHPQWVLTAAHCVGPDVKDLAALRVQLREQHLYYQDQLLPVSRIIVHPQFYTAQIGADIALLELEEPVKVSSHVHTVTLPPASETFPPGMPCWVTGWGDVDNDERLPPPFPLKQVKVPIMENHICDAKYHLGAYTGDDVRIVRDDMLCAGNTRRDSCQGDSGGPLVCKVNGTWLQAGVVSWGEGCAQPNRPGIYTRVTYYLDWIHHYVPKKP
Sequence of recombinant human β-I tryptase (from pPIC9-HumTry, expressed in Pichia pastoris) (chain, as listed by the source): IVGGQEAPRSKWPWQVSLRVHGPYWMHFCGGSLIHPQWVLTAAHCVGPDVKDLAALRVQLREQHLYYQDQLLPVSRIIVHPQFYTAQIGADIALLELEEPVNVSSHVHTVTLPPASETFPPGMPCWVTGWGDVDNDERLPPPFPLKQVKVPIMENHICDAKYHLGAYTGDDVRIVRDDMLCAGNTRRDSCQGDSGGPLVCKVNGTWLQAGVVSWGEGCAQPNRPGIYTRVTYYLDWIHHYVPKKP

Substance	fibrinogen cleavage (SDS-PAGE of fibrinogen subunits after 60 min incubation)
recombinant human β-I tryptase (from pPIC9-HumTry, expressed in Pichia pastoris)	The a and β subunits were efficiently hydrolyzed by the recombinant β-I and β-II tryptase enzymes even during cold incubation.
recombinant human β-II tryptase (from pPIC9-HumTryN102K, expressed in Pichia pastoris)	The a and β subunits were efficiently hydrolyzed by the recombinant β-I and β-II tryptase enzymes even during cold incubation.
β-tryptase isolated from a cadaver (native β)	Native β-tryptase was less efficient at fibrinogeneolysis
